Reference: the supplement of paper PMC10567573

B1: KRT13 (parent)
chain: YGGGLGGGFGGGFAGGFVDFGACD
B2: RSAD1 (parent)
chain: YCNFNKYIPRRLEEAAMQKCLVTE

Variants of: B1
Experiment: protein stability index of a GFP-peptide fusion (GPS, HEK-293T) (PSI 1-6); higher = more stable
Details: c terminus: a fixed tail appended
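Further: lentivirally expressed fusions sorted by FACS into six bins by GFP to DsRed ratio, PSI derived from sequencing read proportions per bin multiplied by bin number.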

Variant	protein stability index
YGGGLGGGFGGGFAGQFVDFGACD [G16Q]	2.36
YGGGLGGGFGGGFAGDFVDFGACD [G16D]	1.94
YGGGLGGGFGGGFAGAFVDFGACD [G16A]	1.81
YGGGLGGGFGGGFAGSFVDFGACD [G16S]	1.83
YGGGLGGGFGGGFAGLFVDFGACD [G16L]	4.03
YGGGLGGGFGGGFAGGFVDFGACP [D24P]	1.85
YGGGLGGGFGGGFAGGFVGFGACD [D19G]	2.41
YGGGLGGGFGGGFAGGFVVFGACD [D19V]	2.61
YGGGLGGGFGGGFAGGFVRFGACD [D19R]	1.96
YGGGLGGGFGGGFAGGFVDFQACD [G21Q]	1.76
YGGGLGGGFGGGFAGGFVDFNACD [G21N]	1.68
YGGGLGGGFGGGFAGGFVDFDACD [G21D]	1.92
YGGGLGGGFGGGFAGGFVDFCACD [G21C]	1
YGGYLGGGFGGGFAGGFVDFGACD [G4Y]	2.38
YGGGLGGGFGGGTAGGFVDFGACD [F13T]	2.07
YGGGLGGGFGGGIAGGFVDFGACD [F13I]	1.79
YGGGLGGGFGGGCAGGFVDFGACD [F13C]	2.11
YGGGLGGGFGGGVAGGFVDFGACD [F13V]	2.12
YGGGLGGGFGGGHAGGFVDFGACD [F13H]	2.44
YGGGLGGGFGGGRAGGFVDFGACD [F13R]	1.77
YGGGLGGGFGGGFAGGQVDFGACD [F17Q]	1.93
YGGGLGGGFGGGFAGGMVDFGACD [F17M]	2.11

Variant	protein stability index
YGGGLGGGFGGGFAGGYVDFGACD [F17Y]	2.01
YGGGLGGGFGGGFAGGNVDFGACD [F17N]	2.55
LGGGLGGGFGGGFAGGFVDFGACD [Y1L]	1.92
DGGGLGGGFGGGFAGGFVDFGACD [Y1D]	3.61
CGGGLGGGFGGGFAGGFVDFGACD [Y1C]	1.52
VGGGLGGGFGGGFAGGFVDFGACD [Y1V]	3.53
YGGGAGGGFGGGFAGGFVDFGACD [L5A]	1.64
YGGGSGGGFGGGFAGGFVDFGACD [L5S]	1.36
YGGGEGGGFGGGFAGGFVDFGACD [L5E]	2.51
YGGGHGGGFGGGFAGGFVDFGACD [L5H]	1.8
YGGGWGGGFGGGFAGGFVDFGACD [L5W]	3.09
YGGGTGGGFGGGFAGGFVDFGACD [L5T]	2.22
YLGGLGGGFGGGFAGGFVDFGACD [G2L]	3.13
YGGGLGGGFGGGFAGGFSDFGACD [V18S]	3.77
YGGGLGGGFGGGFAGGFDDFGACD [V18D]	1.93
YGGGLGGGFGGGFAGGFWDFGACD [V18W]	2.79
YGGGLGGGFGGGFAGGFYDFGACD [V18Y]	1.58
YGGGLGGGFGGGFAGGFTDFGACD [V18T]	2.17
YGGGLGGGFGGRFAGGFVDFGACD [G12R]	2.24
YGGGLGGGFGGCFAGGFVDFGACD [G12C]	2.75
YGGGLGGGTGGGFAGGFVDFGACD [F9T]	2.28
YGGGLGGGMGGGFAGGFVDFGACD [F9M]	1.45

Variant	protein stability index
YGGGLGGGNGGGFAGGFVDFGACD [F9N]	2
YGGGLGGGEGGGFAGGFVDFGACD [F9E]	2.65
YGGGLGGGYGGGFAGGFVDFGACD [F9Y]	1.69
YGGGLGGGFGGGFHGGFVDFGACD [A14H]	3.03
YGGGLGGGFGGGFMGGFVDFGACD [A14M]	3.11
YGGGLGGGFGGGFIGGFVDFGACD [A14I]	2.46
YGGGLGGGFGGGFAGGFVDDGACD [F20D]	2.19
YGGGLGGGFGGGFAGGFVDTGACD [F20T]	2.22
YGGGLGGGFGGGFAGGFVDMGACD [F20M]	1.53
YGGGLGGGFGGGFAGGFVDVGACD [F20V]	1.36
YGGGLSGGFGGGFAGGFVDFGACD [G6S]	1.4
YGGGLRGGFGGGFAGGFVDFGACD [G6R]	1.54
YGGGLKGGFGGGFAGGFVDFGACD [G6K]	1.67
YGGGLFGGFGGGFAGGFVDFGACD [G6F]	1.68
YGGGLGGGFGGGFAGGFVDFGVCD [A22V]	2.4
YGGGLGGGFGGGFAGGFVDFGICD [A22I]	1.33
YGGGLGGGFGGGFAGGFVDFGYCD [A22Y]	1.99
YGGGLGGGFGGGFAGGFVDFGCCD [A22C]	1.9
YGGGLGGGFGGGFAGGFVDFGECD [A22E]	1.92
YGGGLGGGFGGGFAGGFVDFGSCD [A22S]	1.2
YGGGLGGGFGGGFAAGFVDFGACD [G15A]	1.2
YGGGLGGGFGGGFAQGFVDFGACD [G15Q]	2.07

Variant	protein stability index
YGGGLGGGFGGGFAGGFVDFGAKD [C23K]	2.01
YGIGLGGGFGGGFAGGFVDFGACD [G3I]	2.29
YGRGLGGGFGGGFAGGFVDFGACD [G3R]	2.27
YGWGLGGGFGGGFAGGFVDFGACD [G3W]	1.18
YGCGLGGGFGGGFAGGFVDFGACD [G3C]	1.87
YGSGLGGGFGGGFAGGFVDFGACD [G3S]	1.84
YGGGLGGQFGGGFAGGFVDFGACD [G8Q]	1.23
YGGGLGGIFGGGFAGGFVDFGACD [G8I]	2.44
YGGGLGGSFGGGFAGGFVDFGACD [G8S]	2.72
YGGGLGGGFNGGFAGGFVDFGACD [G10N]	1.38
YGGGLGGGFDGGFAGGFVDFGACD [G10D]	2.03
YGGGLGGGFHGGFAGGFVDFGACD [G10H]	1.7
YGGGLGGGFPGGFAGGFVDFGACD [G10P]	1.92
YGGGLGGGFGMGFAGGFVDFGACD [G11M]	2.25
YGGGLGGGFGRGFAGGFVDFGACD [G11R]	1.86
YGGGLGGGFGQGFAGGFVDFGACD [G11Q]	1.73
YGGGLGIGFGGGFAGGFVDFGACD [G7I]	1.9
YGGGLGNGFGGGFAGGFVDFGACD [G7N]	1.31
YGGGLGSGFGGGFAGGFVDFGACD [G7S]	1.48

Variants of: B2
Experiment: as above
Details: c terminus: a fixed tail appended

Variant	protein stability index
YCNFNKYIPRRLEEAAMQICLVTE [K19I]	2.25
YCNFNKYIPRRLEEAAMQPCLVTE [K19P]	2.76
YCNFNKYIPRRLEEAAMQNCLVTE [K19N]	2.37
YCNFNKYIPRRLEEAAMQWCLVTE [K19W]	2.37
YCNFNKYIPRRLEEAAMQSCLVTE [K19S]	2.41
YCNFNKYIPRRLEEAAMQMCLVTE [K19M]	4.09
YCNFNKYIPRRLEEAAMQVCLVTE [K19V]	1.48
YCNFNKYIPRRLEEAAMQQCLVTE [K19Q]	2.96
YCNFNKYIPRRLEEAAMQTCLVTE [K19T]	2.01
